{
  "source": "the nanobody polyreactivity screen of Harvey et al. (2022)",
  "data": [
    {"test": "yeast display, Sf9 membrane polyspecificity reagent, FACS + sequencing; frameworks hold sequencing errors", "how_it_was_run": "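Sorting gates, low and high (top ~1%), were placed on anti-HA fluorescence to track expression and on streptavidin fluorescence to track reagent binding. A clone's polyreactivity label is taken from the gate it came out of. The reagent was 10% biotinylated, detergent-solubilized Sf9 membrane, applied for 1 hour at 4 °C to galactose-induced yeast display cells.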", "values": [
      {"sequence": "QVQLVESGGGLVQAGGSLRLSCAASGSIFRSYAMGWYRQAPGKERELVAAITSGDSTYYADSVKGRFTISRDNAKNTVYLQMNSLKPEDTAVYYCATGLGSTDRSYEYWGQGTQVTVSS", "polyreactivity (PSR sort gate)": "low polyreactivity"},
      {"sequence": "QVQLVESGGGLVQAGGSLRLSCAASGSIFRSYAMGWYRQAPGKERELVASISRRGGSTYYADSVKGRFTISRDNAKNTVYLQMNSLKPEDTAVYYCAVESGYTRSSDYWGQGTQVTVSS", "polyreactivity (PSR sort gate)": "low polyreactivity"},
      {"sequence": "QVQLVESGGGLVQAGGSLRLSCAASGSIFRSYAMGWYRQAPGKERELVASITWRGGRTYYADSVKGRFTISRDNAKNTVYLQMNSLKPEDSAVYYCNVDVPGVRFEYWGQGTQVTVSS", "polyreactivity (PSR sort gate)": "low polyreactivity"},
      {"sequence": "QVQLVESGGGLVQAGGSLRLSCAASGSIFRSYAMGWYRQAPGKERELVATIDRSGGSTYYADSVKGRFTISRDNAKNTVYLQMNSLKPEDTAVYYCNKTPHFPRPGFNYWGQGTQVTVSS", "polyreactivity (PSR sort gate)": "low polyreactivity"},
      {"sequence": "QVQLVESGGGLVQAGGSLRLSCAASGSIFRSYAMGWYRQAPGKERELVSAIRGSDGNTYYADSVKGRFTISRDNAKNTVYLQMNSLKPEDTAVYYCNARSYGYRTSRARYNYWGQGTQVTVSS", "polyreactivity (PSR sort gate)": "high polyreactivity"},
      {"sequence": "QVQLVESGGGLVQAGGSLRLSCAASGSIFRSYAMGWYSQAPGKERELVASISRRGGSTYYADSVKGRFTMSRDHAKNTVYLQMNSLKPEDTAVYYCAAVRYNSRVSTTPSEMYYWGQGTQVTVSS", "polyreactivity (PSR sort gate)": "low polyreactivity"},
      {"sequence": "QVQLVESGGGLVQAGGSLRLSCAASGSIFRTNAMGWYRPAPGKERELVAAITGSGGSTYYADSVKGRFTISRDNAKNTVYLQMNSLKPEDTAVYYCATPVNRERHAEDYWGQGTQVTVSS", "polyreactivity (PSR sort gate)": "low polyreactivity"},
      {"sequence": "QVQLVESGGGLVQAGGSLRLSCAASGSIFRTYAMGWYRQAPGKERELVAAISQSGGSTYYADSVKGRFTISRDNAKNTVYLQMNSLKPEDTAVYYCNKYFTRRQSAVSLSPGKFDYWGQGTQVTVSS", "polyreactivity (PSR sort gate)": "high polyreactivity"},
      {"sequence": "QVQLVESGGGLVQAGGSLRLSCAASGSIFRTYAMGWYRQAPGKERELVAAITSGGSTYYADSVKGRFTISRDNAKNTVYLQMNSLKPEDTAVYYCAAVRYYRYWYYWGQGTQVTVSS", "polyreactivity (PSR sort gate)": "high polyreactivity"},
      {"sequence": "QVQLVESGGGLVQAGGSLRLSCAASGSIFRTYSMGGYRQAPGKERELVATITFGGVSTYYADSVKGRFTISRDNAKNTVYLQMNSLKPEDTAVYYCAADVYTRFWRVYRFDYWGQGTQVTVSS", "polyreactivity (PSR sort gate)": "low polyreactivity"},
      {"sequence": "QVQLVESGGGLVQAGGSLRLSCAASGSIFRVYAMGWYRQAPGKEREFLAAITTRGGSTYYADSVKGRFTISRDNAKNTVYLQMNSLKPEDTAVYYCAARGWVSAYYGYDYWGQGTQVTVSS", "polyreactivity (PSR sort gate)": "high polyreactivity"},
      {"sequence": "QVQLVESGGGLVQAGGSLRLSCAASGSIFRVYAMGWYRQAPGKERELVASMSSDGSTYYADSVKGRFTISRDNAKNTVYLQMNSLKPEDTAVYYEYDWGQGTQVTVSS", "polyreactivity (PSR sort gate)": "low polyreactivity"},
      {"sequence": "QVQLVESGGGLVQAGGSLRLSCAASGSIFRVYTMGWYIQAPGKERELVAAISRSGGRTYYADSVKGRFTISRDNAKNTVYLQMNSLKPEDTAVYYCAARSSLYRAGYRYNSWGQGTQVTVSS", "polyreactivity (PSR sort gate)": "high polyreactivity"},
      {"sequence": "QVQLVESGGGLVQAGGSLRLSCAASGSIFRVYTMGWYRQAPGKERELVAAISRSGGRTYYADSVKGRFTISRDNAKNTVYLQMNSLKPEDTAVYYCNAQYGGQYGYGYWGQGTQVTVSS", "polyreactivity (PSR sort gate)": "high polyreactivity"},
      {"sequence": "QVQLVESGGGLVQAGGSLRLSCAASGSIFRWNAMGWYIQAPGKERELVAAIDSGGSTYADSVKGRFTISRDNAKNTVYLQMNSLKPDDTAVYYCAAEIPDEWPYDYWGQGTQVTVSS", "polyreactivity (PSR sort gate)": "low polyreactivity"},
      {"sequence": "QVQLVESGGGLVQAGGSLRLSCAASGSIFRWNAMGWYRQSPGKERELLAAIDSGGSTYADSVKGRFTISRYNAKNTVYLQMYSLKPEDTAVYYCAAEIPDEWPYDYWGQGTQVTVSS", "polyreactivity (PSR sort gate)": "low polyreactivity"},
      {"sequence": "QVQLVESGGGLVQAGGSLRLSCAASGSIFRWYAMGWSRQAPGKEREFVAAITSSGGSTYYADSVKGRFTISRDNAKNTVYLQMNSLKPEDTAVYYCNRRYQPYSYDYWGQGTQVTVSS", "polyreactivity (PSR sort gate)": "high polyreactivity"},
      {"sequence": "QVQLVESGGGLVQAGGSLRLSCAASGSIFRWYDMGWYRQAPGKERELVAVISKRGGSTYYADSVKGRFTISRDNAKNTVYLQMNSLKPEDTAVYYCAKRYERWQLARLDYWGQGTQVTVSS", "polyreactivity (PSR sort gate)": "high polyreactivity"},
      {"sequence": "QVQLVESGGGLVQAGGSLRLSCAASGSIFRYNALGWYRQAPGKEREFVAAITRSGGSTYADSVKGRFTISRDNAKNTVYLQMNSLKPEDTAVYYCAATFKWYSHTKPRFDYWGQGTQVTVSS", "polyreactivity (PSR sort gate)": "low polyreactivity"},
      {"sequence": "QVQLVESGGGLVQAGGSLRLSCAASGSIFRYNAMGRYRQAPGKERELVAAITSNGGSTYYADSVKGRFTISRDNAKNTVYLQMNCQKPEDTAVYYCNAVYTFTRRYGYWGQGTQVTVSS", "polyreactivity (PSR sort gate)": "high polyreactivity"},
      {"sequence": "QVQLVESGGGLVQAGGSLRLSCAASGSIFRYNAMGWSRQAPGKEREFVAAISYSGGRTYYADSVKGRFTISRDNAKNTVYLQMNSLNPEDTAVYYCNAQYASGRSYFFYWHRYDYWGQGTQVTVSS", "polyreactivity (PSR sort gate)": "high polyreactivity"},
      {"sequence": "QVQLVESGGGLVQAGGSLRLSCAASGSIFRYNAMGWYRKAPGKERELVAAISYRGGSTYYADSVKGRFTISRDNAKITVYLQINSLKPEDTAVYYCAAAVQYSGYRFNYWGQGTQVTVSS", "polyreactivity (PSR sort gate)": "high polyreactivity"},
      {"sequence": "QVQLVESGGGLVQAGGSLRLSCAASGSIFRYNAMGWYRQAPGKERELVAAISASGGRTHYADSVKGRFTISRDNAKNTVYLQMNSLKPEDTAVYYCAAATYRGTSLYGYWGQGTQVTVSS", "polyreactivity (PSR sort gate)": "high polyreactivity"},
      {"sequence": "QVQLVESGGGLVQAGGSLRLSCAASGSIFRYNAMGWYRQAPGKERELVAAITSGDSTYYADSVKGRFTISRDNAKNTVYLQMNSLKPEDTAVYYCAVTTWANTQWEDYWGHGTQVTVSS", "polyreactivity (PSR sort gate)": "low polyreactivity"},
      {"sequence": "QVQLVESGGGLVQAGGSLRLSCAASGSIFRYNTMGWYRQAPGKERELVAAIRGDGSTNYADSVKGRFTISRANAKNTVYLQMNSLKPEDTAVYYCAVTLRGYRYAYDYWGQGTQVTVSS", "polyreactivity (PSR sort gate)": "low polyreactivity"},
      {"sequence": "QVQLVESGGGLVQAGGSLRLSCAASGSIFRYNTMGWYRQAPGKERELVASIRIGGSTYYADSVKGRFTISRDNAKNTVYLQMNSLKPEDTAVYYCAVRPYRSAGGSVTRGAYYYWGQGTQVTVSS", "polyreactivity (PSR sort gate)": "high polyreactivity"},
      {"sequence": "QVQLVESGGGLVQAGGSLRLSCAASGSIFRYYAMGWYIQAPGKERELVAGITGSTGRTYYADSVKGRFTISRDNAKNTVYLQMNSLKPEDTAVYYCAARSRYYEYDYWGQGTQVTVSS", "polyreactivity (PSR sort gate)": "low polyreactivity"},
      {"sequence": "QVQLVESGGGLVQAGGSLRLSCAASGSIFRYYAMGWYRQAPGKDRELVAVITRGGSTYYADSVKGRFTISRDNAKNTVYLQMNSLKPEDTAVYYCAADSWPAGLDRGYWGQGTQVTVSS", "polyreactivity (PSR sort gate)": "low polyreactivity"},
      {"sequence": "QVQLVESGGGLVQAGGSLRLSCAASGSIFRYYAMGWYRQAPGKEREFVAAINTNDAGTYYADSVKGRFTISRDYAKNTVYLQMNSLKPEDTAVYYCAADTGYRFWYDYWGQGTQVTVSS", "polyreactivity (PSR sort gate)": "high polyreactivity"},
      {"sequence": "QVQLVESGGGLVQAGGSLRLSCAASGSIFRYYAMGWYRQAPGKERELVAAISGDSGRTYYADSVKGRFTISRDNAKNTVYFQMNSLKPEDTAVYYCNARVAYRYRTGYDYWGQGTQVTVSS", "polyreactivity (PSR sort gate)": "high polyreactivity"},
      {"sequence": "QVQLVESGGGLVQAGGSLRLSCAASGSIFRYYAMGWYRQAPGKERELVAAITASGGRTHYADSVKGRFTISRDNAKNTVYLQLNSLKLEDTAVYYCAADLYYAWYWKQHYDYWGQGTQVTVSS", "polyreactivity (PSR sort gate)": "high polyreactivity"},
      {"sequence": "QVQLVESGGGLVQAGGSLRLSCAASGSIFRYYAMGWYRQAPGKERELVADITSSGGSTYYADSVKGRFTISRDNAKNTVYLQMNSLKPEDTAVYYCASLYWFYVYPFTEYDYWGQGTQVTVSS", "polyreactivity (PSR sort gate)": "low polyreactivity"},
      {"sequence": "QVQLVESGGGLVQAGGSLRLSCAASGSIFRYYAMGWYRQAPGKERELVARISSGGSTYYADSVKGRFTISRDNAKNTVYLQMNSLKPEDTAVYYCNAGAPARYWWEGDYWGQGTQVTVSS", "polyreactivity (PSR sort gate)": "high polyreactivity"},
      {"sequence": "QVQLVESGGGLVQAGGSLRLSCAASGSIFRYYAMGWYRQAPGKERELVARISWRAGSTYADSVKGRFTISRDNAKNTVYLQMNSLKPEDTAVYYCNADAHKYSWVGTSEYEYWGQGTQVTVSS", "polyreactivity (PSR sort gate)": "high polyreactivity"},
      {"sequence": "QVQLVESGGGLVQAGGSLRLSCAASGSIFRYYAMGWYRQAPGKERELVAVISSGGTRTNYADSVKGRFTISRDTAKNTVYLQMNSLKPEDTAVYYCAAGYLSLYGGGYWGQGTQVTVSS", "polyreactivity (PSR sort gate)": "high polyreactivity"},
      {"sequence": "QVQLVESGGGLVQAGGSLRLSCAASGSIFRYYAMGWYRQEPGKERELVAAISWDGGTTYYADSVKGRFTISRDNAKNTVYLQMNSLKPEDTGVYYCNVEFPLSSYGYDYWGQGTQVTVSS", "polyreactivity (PSR sort gate)": "low polyreactivity"},
      {"sequence": "QVQLVESGGGLVQAGGSLRLSCAASGSIFRYYVMGWYRQAPGKERELVATISRSGGRTYYADSVKGRFTISRDYAKNTVYLQMNSLKPEDTAVYYCARTYGGYPTTYDYWGQGTQVTVSS", "polyreactivity (PSR sort gate)": "high polyreactivity"},
      {"sequence": "QVQLVESGGGLVQAGGSLRLSCAASGSIFSANAMGWYRQAPGKERELVASITGDGSTNYADSVKGRFTISRDNAKNTVYLQMNSLKPEDTAVYYCAADIGSWYDYWGQGTQVTVSS", "polyreactivity (PSR sort gate)": "low polyreactivity"},
      {"sequence": "QVQLVESGGGLVQAGGSLRLSCAASGSIFSAYAMGWYRQAPGKERELVAAISDSGDSTYYADSVKGRFTISRDNAKNTVYLQMNSLKPEDTAVYYCAAESPKWGQGTQVTVSS", "polyreactivity (PSR sort gate)": "low polyreactivity"},
      {"sequence": "QVQLVESGGGLVQAGGSLRLSCAASGSIFSAYAMGWYRQAPGKERELVAGISKRGGSTYYADSVKGRFTISRDNAKNTVYLQMNSLKPEDTAVYYCNAARYTVVTKLFDYWGQGTQVTVSS", "polyreactivity (PSR sort gate)": "high polyreactivity"},
      {"sequence": "QVQLVESGGGLVQAGGSLRLSCAASGSIFSAYGMGWYRQAPGKERELVAAITRSGGSTYYADSVKGRFTISRDNAKNTVYLQMNSLKPEDTAVYYCAAKSIIRPYAPRRDDMDYWGQGTQVTVSS", "polyreactivity (PSR sort gate)": "low polyreactivity"},
      {"sequence": "QVQLVESGGGLVQAGGSLRLSCAASGSIFSDNAMGWYRPAPGKESELVAAITYSGGRTSYADSVKGRFTISRDNAKNTVYLQMNSLKPEDTAVYYCNAEYYYWNREGDYWGQGTQVTVSS", "polyreactivity (PSR sort gate)": "low polyreactivity"},
      {"sequence": "QVQLVESGGGLVQAGGSLRLSCAASGSIFSDNAMGWYRQAPGKERDLVAAISWIGDSTDYADSVKGRFTISRDNAKNTVYLQMNSLKPEDTAVYYCAADAKVVSPRYRANDIGMFYWGQGTQVTVSS", "polyreactivity (PSR sort gate)": "low polyreactivity"}
    ]}
  ]
}
